B1: SlASR1 promoter CArG (26 bp) (dsDNA)
DNA 1: AAGCAAAACATAAAATTGACTTGAAT
DNA 2: ATTCAAGTCAATTTTATGTTTTGCTT
B2: CArG box 5 (26 bp) (dsDNA)
DNA 1: CACAAAAACATAATTATGCTTCTTAC
DNA 2: GTAAGAAGCATAATTATGTTTTTGTG
B3: CArG (26 bp, box 6) (dsDNA)
DNA 1: TTCATATTCCAAAATTTGATATTTTA
DNA 2: TAAAATATCAAATTTTGGAATATGAA
B4: mCArG (26 bp, box 6 mutated) (dsDNA)
DNA 1: TTCATATTTCAAAATTTAATATTTTA
DNA 2: TAAAATATTAAATTTTGAAATATGAA

Key:
[1] = target: T1, RIN139N (GST-RIN, N-terminal) (Solanum lycopersicum, UniProt Q8S4L4 1-139); assay: EMSA; 20 mM HEPES pH 7.5, 20% glycerol, 0.05 ug poly(dIdC), 2.5 mM EDTA, 2.5 mM DTT, 25 mM NaCl, plus 0.8 mM ZnCl2 (SlASR1) or 10 mM MgCl2 (RIN), 25 C, 30 min; 6% native PAGE 0.5x TBE; details: protein: recombinant; tags: N-terminal GST; chain copies: 2; label: 5'-32P
[2] = target: T1, RIN139N (GST-RIN, N-terminal); assay: EMSA; intense signal; 20 mM HEPES pH 7.5, 20% glycerol, 0.05 ug poly(dIdC), 2.5 mM EDTA, 2.5 mM DTT, 25 mM NaCl, plus 0.8 mM ZnCl2 (SlASR1) or 10 mM MgCl2 (RIN), 25 C, 30 min; 6% native PAGE 0.5x TBE; details: protein: recombinant; tags: N-terminal GST; chain copies: 2; label: 5'-32P

T1 sequence (Q8S4L4 entry or part of it): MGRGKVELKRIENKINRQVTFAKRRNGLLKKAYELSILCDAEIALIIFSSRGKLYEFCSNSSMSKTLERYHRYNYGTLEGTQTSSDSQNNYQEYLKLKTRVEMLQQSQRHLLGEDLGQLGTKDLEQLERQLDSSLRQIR

| Binder | binding result [1] | binding result [2] |
| --- | --- | --- |
| B1 | binds | – |
| B2 | – | binds |
| B3 | – | binds |
| B4 | no binding | – |

From publication PMC4203122, “Insights into transcriptional regulation of β-D-N-acetylhexosaminidase, an N-glycan-processing enzyme involved in ripening-associated fruit softening”
